Target: T1, PSAF subunit of Chlamydomonas reinhardtii Photosystem I (Chlamydomonas reinhardtii (endogenous …, UniProt P12356 63-227))
T1 sequence (looked up): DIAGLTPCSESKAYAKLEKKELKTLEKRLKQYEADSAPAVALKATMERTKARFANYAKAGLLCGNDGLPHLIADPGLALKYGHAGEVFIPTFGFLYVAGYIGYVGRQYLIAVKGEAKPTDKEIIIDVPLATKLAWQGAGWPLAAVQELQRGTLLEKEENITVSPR
Experiment: cross-linking

B1: Chlamydomonas reinhardtii cytochrome c6 E71Q (natural protein)
chain: ADLALGAQVFNGNCAACHMGGRNSVMPEKTLDKAALEQYLDGGFKVESIIYQVENGKGAMPAWADRLSEEQIQAVAEYVFKQATDAAWKY
modifications: heme (c-type cytochrome)
- binding result: binds

— article doi:10.1101/2025.09.08.674899 (bioRxiv, 2025)
